Test results as given in US20170029507A1 (IMAGINAB, published 2017).

Columns and labels:
[1] = target: T1, purified recombinant human CD8 protein (human, UniProt P01732 22-182, limits assumed); experiment: ELISA, plate coated with rhCD8, transfection supernatant serially diluted from 0.5 µg/ml, HRP goat anti-human IgG (Fc-specific), TMB, 405 nm
T1 construct: also called rhCD8; hCD8
Procedure: (§1) The concentration of the variants UAb_Mb1b_CD8, and IAb_Mb1a_CD8 were normalized to […] the concentration of IAb_MB2a_CD8 (0.5 μg/ml) based on the quantitative ELISA.
(§2) 96 well plates were coated with rhCD8 antigen and incubated with supernatants obtained from the transient transfection. Binding was detected with HRP-conjugated goat anti-human (Fc-specific) IgG and TMB substrate. The absorbance measured at 405 nm. Dilutions were done in triplicate. Data is shown as mean of relative absorbance.

[2] = target: T1, purified recombinant human CD8 protein; experiment: ELISA, plate coated with rhCD8, transfection supernatant at 0.5 µg/ml and serially diluted, HRP goat anti-human IgG (Fc-specific), TMB, 405 nm
Procedure: as §1, §2

T1 sequence (P01732 22-182 limits assumed): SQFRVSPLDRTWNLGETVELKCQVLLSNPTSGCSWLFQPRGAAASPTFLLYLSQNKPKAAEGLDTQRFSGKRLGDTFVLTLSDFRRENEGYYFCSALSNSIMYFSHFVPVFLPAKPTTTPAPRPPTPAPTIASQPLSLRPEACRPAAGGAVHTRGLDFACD

Row | EC50 (read off the curve) [1] [µg/mL] | EC50 (read off the curve) [2] [µg/mL] | Binder
1 | ~0.04 |  | IAb_Mb2c_CD8 (other, Tested as CHO-K1 transfection supernatant; also called variant 2c) QVQLVQSGAEVKKPGATVKISCKVSGFNIKDTYIHFVQQAPGKGLEWIGRIDPANDNTLYASKFQGKATITADTSTDTAYMELSSLRSGDTAVYYCGRGYGYYVFDHWGQGTLVTVSSGSTSGGGSGGGSGGGGSSDVQITQSPSSLSASVGDRVTITCRTSRSISQYLAWYQQKPGKVPKLLIYSGSTLQSGVPSRFSGSGSGTDFTLTISSLQPEDVATYYCQQHNENPLTFGGGTKVEIKEPKSCDKTHTCPPCGGGSSGGGSGGQPREPQVYTLPPSRDELTKNQVSLTCLVKGFYPSDIAVEWESNGQPENNYKTTPPVLDSDGSFFLYSKLTVDKSRWQQGNVFSCSVMHEALHNHYTQKSLSLSPGK
2 |  | ~0.02 | IAb_Mb2a_CD8 (other, Tested as CHO-K1 transfection supernatant; also called variant 2a) EVQLVESGGGLVQPGGSLRLSCAASGFNIKDTYIHFVRQAPGKGLEWIGRIDPANDNTLYASKFQGKATISADTSKNTAYLQMNSLRAGDTAVYYCGRGYGYYVFDHWGQGTLVTVSSGSTSGGGSGGGSGGGGSSDVQITQSPSSLSASVGDRVTITCRTSRSISQYLAWYQQKPGKVPKLLIYSGSTLQSGVPSRFSGSGSGTDFTLTISSLQPEDVATYYCQQHNENPLTFGGGTKVEIKEPKSCDKTHTCPPCGGGSSGGGSGGQPREPQVYTLPPSRDELTKNQVSLTCLVKGFYPSDIAVEWESNGQPENNYKTTPPVLDSDGSFFLYSKLTVDKSRWQQGNVFSCSVMHEALHNHYTQKSLSLSPGK
